# Data: patent publication US20120252691, “MODIFIED NUCLEOTIDES METHODS AND KITS” (Pierce Biotechnology, Inc., published 2012)
# B1: Poly(A)25 RNA, biotin-PEG12 (ssRNA)
# RNA: AAAAAAAAAAAAAAAAAAAAAAAAA
# Target: PABPC1-GST (Poly(A) binding protein) (UniProt P11940 P11940:1-636)
# Experiment: pulldown; 10 mM Tris pH 7.5, 2.5 mM MgCl2, 10 mM KCl, 15% glycerol, tRNA, 4 C; also with UV crosslinking (FIG. 17)
# Conditions: tags: GST; label: 3'-biotin-PEG12-alkane-cytidine
# Protocol: Poly(A)₂₅ RNA was labeled using biotin-PEG₁₂-alkane-3′5′-bisphosphate cytidine and T4 RNA ligase. The Poly(A) Binding Protein (PABP), which binds the poly(A) tracts of mRNA, was cloned into a vector containing a GST-tag and expressed in a human cell-free in vitro translation (IVT) system. The lysate was diluted 1:10 for use in the binding reaction. The labeled RNA (50 pmol) was incubated with streptavidin magnetic beads (0.5 mg) for thirty minutes in 20 mM Tris-HCl (7.5), 100 mM NaCl, 1 mM EDTA. After washing, the beads were then incubated with 2-3 μl of diluted IVT lysate cell lysate in Binding Buffer (10 mM Tris-HCl, pH 7.5, 2.5 mM MgCl₂, 10 mM KCl, 15% glycerol, 0.5% Tween-20, and 10 μg tRNA) for one hour at 4° C. An unrelated RNA was used as a negative control, and beads were incubated with lysate alone to assess background. […] After separation by electrophoresis, PABP was detected using PABP antibody.
# Synthetic RNA (50 pmol/reaction) was end-labeled using a twenty-fold excess of Biotin-PEG₁₂-Alkane-3′5′-Bisphosphate Cytidine with T4 RNA ligase. […] Normalized samples were separated by electrophoresis, transferred, and detected using PABPC1, GST (SNRPA1) antibodies (1:1000 dilution in TBST-0.5% BSA). […]
# Chain of PABPC1-GST (Poly(A) binding protein) (P11940 whole entry, one chain of several): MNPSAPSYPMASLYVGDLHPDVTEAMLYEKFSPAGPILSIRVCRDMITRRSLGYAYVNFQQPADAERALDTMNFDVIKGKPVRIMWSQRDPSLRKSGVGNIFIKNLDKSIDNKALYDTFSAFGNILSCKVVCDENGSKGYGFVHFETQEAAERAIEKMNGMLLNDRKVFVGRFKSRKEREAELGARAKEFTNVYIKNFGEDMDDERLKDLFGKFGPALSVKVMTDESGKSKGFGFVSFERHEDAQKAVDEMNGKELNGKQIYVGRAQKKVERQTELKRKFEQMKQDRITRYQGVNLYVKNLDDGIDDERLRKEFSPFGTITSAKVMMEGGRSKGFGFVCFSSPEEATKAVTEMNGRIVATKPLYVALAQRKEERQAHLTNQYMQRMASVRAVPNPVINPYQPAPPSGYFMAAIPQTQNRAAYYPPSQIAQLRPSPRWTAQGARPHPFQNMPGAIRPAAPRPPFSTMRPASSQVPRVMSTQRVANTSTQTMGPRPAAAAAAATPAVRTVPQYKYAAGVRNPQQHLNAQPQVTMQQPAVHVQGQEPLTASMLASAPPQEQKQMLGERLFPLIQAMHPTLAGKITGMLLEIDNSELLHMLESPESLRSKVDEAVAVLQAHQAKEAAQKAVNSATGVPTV
binder,measurement,value
B1,binding result,binds
